From paper PMC10441612

Target: Noe1-His (Noelin 1 with C-terminal hexa-histidine tag), O88998
Test: AUC
Conditions: remark: other sources report otherwise

B1: Noe1-His (Noelin 1 with C-terminal hexa-histidine tag), O88998 17-485 (natural protein)
chain: MITNWMSQTLPSLVGLNTTRLSAASGGTLDRSTGVLPTNPEESWQVYSSAQDSEGRCICTVVAPQQTMCSRDARTKQLRQLLEKVQNMSQSIEVLDRRTQRDLQYVEKMENQMKGLETKFKQVEESHKQHLARQFKAIKAKMDELRPLIPVLEEYKADAKLVLQFKEEVQNLTSVLNELQEEIGAYDYDELQSRVSNLEERLRACMQKLACGKLTGISDPVTVKTSGSRFGSWMTDPLAPEGDNRVWYMDGYHNNRFVREYKSMVDFMNTDNFTSHRLPHPWSGTGQVVYNGSIYFNKFQSHIIIRFDLKTEAILKTRSLDYAGYNNMYHYAWGGHSDIDLMVDENGLWAVYATNQNAGNIVISKLDPVSLQILQTWNTSYPKRSAGEAFIICGTLYVTNGYSGGTKVHYAYQTNASTYEYIDIPFQNKYSHISMLDYNPKDRALYAWNNGHQTLYNVTLFHVIRSDEL
modifications: here or on the partner: glycosylated; glycosylated
In the case of B1, the stoichiometry N is reported as 4.
